Assays:
VEGF [1] = target: T1, VEGF (UniProt P15692-4 27-191, limits assumed); assay: Biacore SPR, VEGF immobilized on the chip, antibody as analyte, bivalent model fit
T1 construct: also called VEGF-A; vascular endothelial growth factor
Source text: (§1) Data was fit with a bivalent model for affinity determination.

VEGF [2] = target: T1, VEGF; assay: VEGFR2 blocking ELISA: antibody pre-incubated with VEGF, added to a VEGFR2-coated plate
VEGF [3] = target: T1, VEGF; assay: competition ELISA: titrated antibody and biotinylated bevacizumab added to a VEGF-coated plate, bound biotinylated bevacizumab detected with Strep-HRP; competitor: biotinylated bevacizumab
VEGF [4] = target: T1, VEGF; assay: Biacore SPR, both antibodies tested under the same conditions
Source text: as §1

VEGF [5] = target: T1, VEGF; assay: VEGFR1 blocking ELISA: antibody pre-incubated with VEGF, added to a VEGFR1-coated plate
VEGF [6] = target: T1, VEGF; assay: summary table of MAb7392 characterization; affinity by Biacore, rounded form of the value in Table 2; summary Table 6, rounded value
Source text: as §1

T1 sequence (P15692 other isoform, or with tags, fused parts or gaps limits assumed): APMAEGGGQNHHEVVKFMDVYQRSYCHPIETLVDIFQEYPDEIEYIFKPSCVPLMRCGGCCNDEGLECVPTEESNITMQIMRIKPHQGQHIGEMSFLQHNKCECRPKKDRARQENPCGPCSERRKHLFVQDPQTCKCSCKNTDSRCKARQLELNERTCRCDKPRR

- Kd (VEGF [1]): 0.91 nM
- IC50 (VEGF [2]): 0.18 nM
- IC50 (read off the curve) (VEGF [3]): ~0.6 nM
- fold better affinity than bevacizumab (VEGF [4]): ~4 fold
- IC50 (VEGF [5]): 0.08 nM
- Kd (VEGF [6]): 0.9 nM
B1: MAb7392 (antibody, V domains shown)
VH: QVQLVQSGAELRKPGASVKISCKASGYSLTYYGMNWVRQAPGQGLEWMGWINTFTGDSTYAQDFTGRFVFSLDTSVSTAYLQISSLKAEDMAMYYCAKYPHYYGSSHWYFDVWGQGTTVTVSS
VL: EIVLTQSPATLSVSPGERATLSCRASQSVNSNLAWYQQKPGQAPRVLIYGASTRATGIPARFSGSGSGTEFTLTISSLQSEDFAVYYCQQYSDIPWTFGQGTKLEIK
notes: also called H7230 + L7104

Reference: patent publication US20130202615A1 (VACCINEX, published 2013)
